What was measured:
human ICOS (human) = human ICOS (human) (UniProt Q9Y6W8); experiment: Biacore, human ICOS
[1] = target: cynomolgus ICOS (cynomolgus); experiment: Biacore, cyno ICOS

Chain of human ICOS (human) (Q9Y6W8 21-140 limits assumed): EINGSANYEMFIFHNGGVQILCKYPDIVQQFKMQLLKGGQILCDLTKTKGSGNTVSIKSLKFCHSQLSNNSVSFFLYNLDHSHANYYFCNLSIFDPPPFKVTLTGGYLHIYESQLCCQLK

Kd (human ICOS (human)): 17 nM
Kd [1]: 9.3 nM
B1: ICOS mAb clone 314.8 (antibody, from another filing, V domains shown)
VH: QVQLQQPGTELMKPGASVKLSCKASGYTFTTYWMHWVKQRPGQGLEWIGEIDPSDSYVNYNQNFKGKATLTVDKSSSTAYIQLSSLTSEDSAVYFCARSPDYYGTSLAWFDYWGQGTLVTVST
VL: DIVMTQAAPSVPVTPGESVSISCRSSKSPLHSNGNIYLYWFLQRPGQSPQLLIYRMSNLASGVPDRFSGSGSGTTFTLKISRVEAEDVGVYYCMQHLEYPYTFGGGTKLEIK

Reference: patent US20180030136A1
